Consider three molecules from patent publication US20250000946A1.

B1: W3XX115-T3U0.E44-1.uIgG4V322 (Fc fusion)
chain: APTSSSTKKTQLQLEHLLLDLQMILNGINNYKNPKLTRMLTAKFAMPKKATELKHLQCLEEELKPLEEVLNGAQSKNFHLRPRDLISNINVIVLELKGSETTFMCEYADETATIVEFLNRWITFCQSIISTLTESKYGPPCPPCPAPEAAGGPSVFLFPPKPKDTLMISRTPEVTCVVVDVSQEDPEVQFNWYVDGVEVHNAKTKPREEQFNSTYRVVSVLTVLHQDWLNGKEYKCKVSNKGLPSSIEKTISKAKGQPREPQVYTLPPCQEEMTKNQVSLWCLVKGFYPSDIAVEWESNGQPENNYKTTPPVLDSDGSFFLYSRLTVDKSRWQEGNVFSCSVMHEALHNHYTQKSLSLSLG
heavy: EIQLQQSGPELVKPGASVKVSCKASGYSFTDYNMYWVKQSHGESLEWIGYIDPYNGGTRYNQKFKGKATLTVDKSSSTAFMHLNSLTSEDSAVYYCARNGHWDGAWFAYWGQGTLVTVSAASTKGPSVFPLAPCSRSTSESTAALGCLVKDYFPEPVTVSWNSGALTSGVHTFPAVLQSSGLYSLSSVVTVPSSSLGTKTYTCNVDHKPSNTKVDKRVESKYGPPCPPCPAPEAAGGPSVFLFPPKPKDTLMISRTPEVTCVVVDVSQEDPEVQFNWYVDGVEVHNAKTKPREEQFNSTYRVVSVLTVLHQDWLNGKEYKCKVSNKGLPSSIEKTISKAKGQPREPQVCTLPPSQEEMTKNQVSLSCAVKGFYPSDIAVEWESNGQPENNYKTTPPVLDSDGSFFLVSRLTVDKSRWQEGNVFSCSVMHEALHNHYTQKSLSLSLG
light: DIQMNQSPSSLSASLGDTITITCHASQNINVWLSWYQQKPGNIPKLLIYKASNLHTGVPSRFSGSRSGTGFTLTISSLQPEDIATYYCHQGQSYPFTFGSGTKLEIKRTVAAPSVFIFPPSDEQLKSGTASVVCLLNNFYPREAKVQWKVDNALQSGNSQESVTEQDSKDSTYSLSSTLTLSKADYEKHKVYACEVTHQGLSSPVTKSFNRGEC
B2: W3XX115-T2U0.E44-32.uIgG4V322 (Fc fusion)
chain: APTSSSTKKTQLQLEHLLLDLQMILNGINNYKNPKLTRMLTIKFYMPKKATELKHLQCLEEELKPLEEVLNLAQSKNFHLRPRDLISNINVIVLELKGSETTFMCEYADETATIVEFLNRWITFCQSILESKYGPPCPPCPAPEAAGGPSVFLFPPKPKDTLMISRTPEVTCVVVDVSQEDPEVQFNWYVDGVEVHNAKTKPREEQFNSTYRVVSVLTVLHQDWLNGKEYKCKVSNKGLPSSIEKTISKAKGQPREPQVYTLPPCQEEMTKNQVSLWCLVKGFYPSDIAVEWESNGQPENNYKTTPPVLDSDGSFFLYSRLTVDKSRWQEGNVFSCSVMHEALHNHYTQKSLSLSLG
heavy: B1 heavy
light: B1 light
B3: W3XX115-T2U0.E44-31.uIgG4V322 (Fc fusion)
chain: B2 chain with I42V
heavy: B1 heavy
light: B1 light

Where a chain is given by its changes, count along the chain named.

For this experiment, the target named is Human IL-2Rα/β/γ complex (high affinity IL-2 receptor) (human) (UniProt P01589). The experiment is described as follows: cell-based or functional assay.
Sequence of Human IL-2Rα/β/γ complex (high affinity IL-2 receptor) (human) (P01589 22-272, chain 1 of 3): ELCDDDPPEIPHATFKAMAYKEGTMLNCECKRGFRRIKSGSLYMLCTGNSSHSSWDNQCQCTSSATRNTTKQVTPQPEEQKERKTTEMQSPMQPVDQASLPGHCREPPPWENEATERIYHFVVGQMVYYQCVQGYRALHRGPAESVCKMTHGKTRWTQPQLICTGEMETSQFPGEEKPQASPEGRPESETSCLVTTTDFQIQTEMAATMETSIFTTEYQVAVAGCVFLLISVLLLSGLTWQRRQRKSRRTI
Sequence of Human IL-2Rα/β/γ complex (high affinity IL-2 receptor) (human) (P14784 27-551, chain 2 of 3, further chain): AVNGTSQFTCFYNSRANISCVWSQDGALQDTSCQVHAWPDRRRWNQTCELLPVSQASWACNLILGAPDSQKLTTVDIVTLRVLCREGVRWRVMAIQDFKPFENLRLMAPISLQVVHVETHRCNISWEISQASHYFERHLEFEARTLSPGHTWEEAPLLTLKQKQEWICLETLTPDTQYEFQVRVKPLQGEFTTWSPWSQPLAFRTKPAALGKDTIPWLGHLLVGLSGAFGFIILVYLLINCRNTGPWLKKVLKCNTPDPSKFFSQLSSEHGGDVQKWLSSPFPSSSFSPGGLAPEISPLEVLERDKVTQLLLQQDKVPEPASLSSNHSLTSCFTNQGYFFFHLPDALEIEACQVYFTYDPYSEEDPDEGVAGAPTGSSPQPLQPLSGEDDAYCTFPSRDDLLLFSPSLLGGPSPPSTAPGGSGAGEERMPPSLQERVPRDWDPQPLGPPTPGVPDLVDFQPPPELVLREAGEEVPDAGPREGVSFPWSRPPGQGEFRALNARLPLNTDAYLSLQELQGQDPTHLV
Sequence of Human IL-2Rα/β/γ complex (high affinity IL-2 receptor) (human) (P31785 23-369, chain 3 of 3, further chain): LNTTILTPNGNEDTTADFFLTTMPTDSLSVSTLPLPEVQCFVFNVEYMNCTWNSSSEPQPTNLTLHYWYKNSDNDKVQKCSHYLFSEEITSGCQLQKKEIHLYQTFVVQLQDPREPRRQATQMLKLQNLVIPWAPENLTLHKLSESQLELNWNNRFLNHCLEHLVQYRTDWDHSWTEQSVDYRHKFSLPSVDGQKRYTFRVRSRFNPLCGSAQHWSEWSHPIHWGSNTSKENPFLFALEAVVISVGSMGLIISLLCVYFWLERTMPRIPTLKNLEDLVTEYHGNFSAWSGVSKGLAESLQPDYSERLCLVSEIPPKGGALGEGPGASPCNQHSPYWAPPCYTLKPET
In the case of B1, the Human Treg Potency EC50 (STAT5 phosphorylation) amounted to 7.78 nM and the Human Treg Potency reduction was 5560 fold.
In the same order, the values of B2 are 40.9 nM and 29200 fold.
Turning to B3, the Human Treg Potency EC50 (STAT5 phosphorylation) is 48.8 nM and the Human Treg Potency reduction amounted to 34900 fold.
